Results on 14 molecules are retold here after patent US20240116985A1 (published 2024).

As a reminder, the EC50 is the concentration at which the effect is half-maximal. High values mean a less potent agent, low ones a more potent agent.

Starred links: 1 amine or outer side, 2 acyl side, 3 side chain; linkers in the order of their positions; H or OH if unused. Positions of bridges follow the written chain, without caps; N, C: chain ends. Non-standard residues stand in square brackets, D forms with d. Primed or numbered codes have the meaning given here. PyrS2″ = (S)-3-amino-1-((pent-4-en-1-yloxy)carbonyl)pyrrolidine-3-carboxylic acid (stapling residue), C=CCCCOC(=O)N1CC[C@@](N[*:1])(C(=O)[*:2])C1; RdN″ = (R)-4-(((allyloxy)carbonyl)(methyl)amino)-2-amino-2-methylbutanoic acid (stapling residue), C=CCOC(=O)N(C)CC[C@@](C)(N[*:1])C(=O)[*:2]; PyrS(3) = (S)-1-((allyloxy)carbonyl)-3-aminopyrrolidine-3-carboxylic acid, stapling residue, C=CCOC(=O)N1CC[C@@](N[*:1])(C(=O)[*:2])C1; PyrS″ = (S)-1-((allyloxy)carbonyl)-3-aminopyrrolidine-3-carboxylic acid (stapling residue), C=CCOC(=O)N1CC[C@@](N[*:1])(C(=O)[*:2])C1; SeN = (S)-5-(((allyloxy)carbonyl)(methyl)amino)-2-amino-2-methylpentanoic acid, C=CCOC(=O)N(C)CCC[C@](C)(N[*:1])C(=O)[*:2]; PyrS = (S)-1-((allyloxy)carbonyl)-3-aminopyrrolidine-3-carboxylic acid, C=CCOC(=O)N1CC[C@@](N[*:1])(C(=O)[*:2])C1; B5(3) = 2,2-bis(4-pentenyl)glycine (stitching residue), C=CCCCC(CCCC=C)(N[*:1])C(=O)[*:2]; S7 = C[C@@](CCCCCC=[*:3])(N[*:1])C(=O)[*:2]; Bip = N[C@@H](Cc1ccc(-c2ccccc2)cc1)C(=O)O; Phe(2-Cl) = N[C@@H](Cc1ccccc1Cl)C(=O)O; Bta = N[C@@H](Cc1csc2ccccc12)C(=O)O; αAllylPro = C=CC[C@@]1(C(=O)O)CCCN1; tBuAla = CC(C)(C)C[C@H](N)C(=O)O; 3Pal = N[C@@H](Cc1cccnc1)C(=O)O; R8 = C=CCCCCCC[C@@](C)(N)C(=O)O; Aad = N[C@@H](CCCC(=O)O)C(=O)O; Thr(ol) = C[C@@H](O)[C@H](N)CO; R5 = C=CCCC[C@@](C)(N)C(=O)O; hLeu = CC(C)CC[C@H](N)C(=O)O; Nle = CCCC[C@H](N)C(=O)O

One experiment addresses T1, beta-catenin (Homo sapiens (Human), UniProt P35222 2-781).
T1 sequence: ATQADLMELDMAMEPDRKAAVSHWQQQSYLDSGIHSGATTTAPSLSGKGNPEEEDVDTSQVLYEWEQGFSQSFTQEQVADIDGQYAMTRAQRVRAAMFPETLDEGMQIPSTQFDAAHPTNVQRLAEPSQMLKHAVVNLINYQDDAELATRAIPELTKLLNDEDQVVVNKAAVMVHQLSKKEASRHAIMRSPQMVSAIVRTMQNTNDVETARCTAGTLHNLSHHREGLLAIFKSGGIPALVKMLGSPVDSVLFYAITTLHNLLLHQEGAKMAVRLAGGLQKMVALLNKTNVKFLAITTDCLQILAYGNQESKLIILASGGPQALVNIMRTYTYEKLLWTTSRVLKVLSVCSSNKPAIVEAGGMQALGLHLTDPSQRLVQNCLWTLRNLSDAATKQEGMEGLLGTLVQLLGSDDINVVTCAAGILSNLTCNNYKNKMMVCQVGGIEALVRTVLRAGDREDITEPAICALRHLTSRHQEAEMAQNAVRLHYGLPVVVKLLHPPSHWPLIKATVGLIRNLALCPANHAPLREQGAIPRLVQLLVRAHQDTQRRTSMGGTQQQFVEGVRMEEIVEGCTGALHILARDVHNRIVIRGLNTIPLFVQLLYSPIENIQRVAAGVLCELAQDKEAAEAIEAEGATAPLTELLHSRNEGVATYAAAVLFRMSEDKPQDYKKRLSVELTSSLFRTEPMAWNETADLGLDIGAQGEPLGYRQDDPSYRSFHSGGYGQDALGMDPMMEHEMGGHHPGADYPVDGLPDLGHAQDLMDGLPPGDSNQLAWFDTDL
As to the kind of experiment: cell-based or functional assay.

The target in experiment [1] is T2, full-length beta-Catenin (Uniprot ID P35222) (Homo sapiens (Human), UniProt P35222 2-781).
T2 construct: The assay text says 'full-length'; also called B-Catenin; bCat
T2 sequence: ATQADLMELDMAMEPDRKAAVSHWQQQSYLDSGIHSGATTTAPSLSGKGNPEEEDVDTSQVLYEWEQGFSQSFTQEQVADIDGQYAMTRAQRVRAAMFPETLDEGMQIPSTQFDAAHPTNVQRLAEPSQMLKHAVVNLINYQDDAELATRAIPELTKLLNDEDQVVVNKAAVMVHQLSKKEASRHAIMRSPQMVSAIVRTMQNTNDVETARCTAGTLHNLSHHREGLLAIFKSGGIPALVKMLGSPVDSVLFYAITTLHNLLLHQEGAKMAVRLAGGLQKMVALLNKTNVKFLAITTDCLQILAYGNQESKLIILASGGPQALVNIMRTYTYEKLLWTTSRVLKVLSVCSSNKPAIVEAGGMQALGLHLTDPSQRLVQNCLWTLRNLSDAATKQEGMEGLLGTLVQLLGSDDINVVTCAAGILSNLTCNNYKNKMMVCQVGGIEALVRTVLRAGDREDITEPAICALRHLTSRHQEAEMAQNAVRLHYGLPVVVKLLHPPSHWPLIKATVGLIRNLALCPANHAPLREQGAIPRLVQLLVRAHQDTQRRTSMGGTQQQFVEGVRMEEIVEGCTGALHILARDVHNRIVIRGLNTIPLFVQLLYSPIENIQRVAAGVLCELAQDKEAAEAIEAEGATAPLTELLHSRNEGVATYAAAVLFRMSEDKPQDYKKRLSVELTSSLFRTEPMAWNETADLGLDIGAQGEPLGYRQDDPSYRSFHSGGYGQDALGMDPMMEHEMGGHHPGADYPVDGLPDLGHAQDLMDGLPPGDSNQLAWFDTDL
Briefly: AlphaScreen competition vs biotin-TCF4(10-53) on full-length beta-catenin. The procedure: Equal volume of the titrated peptide was added to the plate and incubated for 15 minutes at 20° C. Then 4 uL of donor and 4 uL acceptor beads at 10 ug/mL were added to the plate, for a 16 uL reaction pool and protected from light for 60 minutes at 20° C. prior to read. Reads were performed on a CLARIOstar plate reader (BMG Labtech) in duplicate, and data were fitted to a 1:1 binding model with hill slope using an in-house script. All provided concentrations are final concentrations.
For orientation: In Alpha technology, singlet oxygen from a donor bead excites a nearby acceptor bead.

Regarding Ac-[αAllylPro]D[tBuAla][B5(3)]DDAAFN[PyrS2″][Phe(2-Cl)][Bta][Thr(ol)] (staple 1-4, 4-11) [I-1082], in the experiment with beta-catenin, the “DLD1 TCF c2 BrightGlo % Inhibition (TCF/LEF luciferase reporter; 0.625 uM by plate map, replicate 1)” value came out at 14.1%; the “DLD1 TCF c2 BrightGlo % Inhibition (TCF/LEF luciferase reporter; 0.625 uM by plate map, replicate 2)” value turned out to be 17.4%; the “DLD1 TCF c2 BrightGlo % Inhibition (TCF/LEF luciferase reporter; 0.625 uM by plate map, replicate 3)” value came to 20.3%; the “DLD1 TCF c2 BrightGlo % Inhibition (TCF/LEF luciferase reporter; 1.25 uM by plate map, replicate 1)” value was found to be 14%. In the experiment with beta-catenin, the “DLD1 TCF c2 BrightGlo % Inhibition (TCF/LEF luciferase reporter; 1.25 uM by plate map, replicate 2)” value came to 21.5%; the “DLD1 TCF c2 BrightGlo % Inhibition (TCF/LEF luciferase reporter; 1.25 uM by plate map, replicate 3)” value was 24%; the “DLD1 TCF c2 BrightGlo % Inhibition (TCF/LEF luciferase reporter; 2.5 uM by plate map, replicate 1)” value was 17.3%; the “DLD1 TCF c2 BrightGlo % Inhibition (TCF/LEF luciferase reporter; 2.5 uM by plate map, replicate 2)” value worked out at 36.1%. In the experiment with beta-catenin, the “DLD1 TCF c2 BrightGlo % Inhibition (TCF/LEF luciferase reporter; 2.5 uM by plate map, replicate 3)” value amounted to 37.9%; the “DLD1 TCF c2 BrightGlo % Inhibition (TCF/LEF luciferase reporter; 5 uM by plate map, replicate 1)” value was found to be 38.5%; the “DLD1 TCF c2 BrightGlo % Inhibition (TCF/LEF luciferase reporter; 5 uM by plate map, replicate 2)” value amounted to 56.2%; the “DLD1 TCF c2 BrightGlo % Inhibition (TCF/LEF luciferase reporter; 5 uM by plate map, replicate 3)” value worked out at 62%. In addition, in the experiment with beta-catenin, the “DLD1 TCF c2 BrightGlo % Inhibition (TCF/LEF luciferase reporter; 10 uM by plate map, replicate 1)” value was found to be 63.9%; the “DLD1 TCF c2 BrightGlo % Inhibition (TCF/LEF luciferase reporter; 10 uM by plate map, replicate 2)” value amounted to 71%; the “DLD1 TCF c2 BrightGlo % Inhibition (TCF/LEF luciferase reporter; 10 uM by plate map, replicate 3)” value came out at 75%; the “DLD1 TCF c2 BrightGlo % Inhibition (TCF/LEF luciferase reporter; 20 uM by plate map, replicate 1)” value was 76.5%. Moreover, in the experiment with beta-catenin, the “DLD1 TCF c2 BrightGlo % Inhibition (TCF/LEF luciferase reporter; 20 uM by plate map, replicate 2)” value stood at 77.1% and the “DLD1 TCF c2 BrightGlo % Inhibition (TCF/LEF luciferase reporter; 20 uM by plate map, replicate 3)” value was 79.9%.

B1: I-18 (peptide)
peptide: Ac-FDA[R8]D[hLeu]AAFV[PyrS]FWQ-NH2
modifications: staple 4-11; not fully specified; printed as Ac-Phe-Asp-Ala-R8-Asp-hLeu-Ala-Ala-Phe-Val-PyrS-Phe-Trp-Gln-NH2
notes: Stapled peptide composition
B1 registered an EC50 in experiment [1] not below 10 µM.

As for Ac-FDA[R8]D[Bip]AAFV[PyrS(3)]FWQ-NH2 (staple 4-11, Stapled peptide composition) [I-12], in experiment [1], the EC50 is not below 10 µM.

Ac-FDA[R5]DDAAFV[SeN]FWQ-NH2 (staple 4-11, Stapled peptide composition) [I-25] displayed an EC50 in experiment [1] of 7.22 µM.

In turn, Ac-FDA[R8]D[3Pal]AAFV[PyrS″]FWQ-NH2 (staple 4-11, Stapled peptide composition) [I-10] registered a concentration for a half-maximal effect (EC50) in experiment [1] not below 10 µM.

For the molecule Ac-FDA[R8]D[Nle]AAFV[PyrS]FWQ-NH2 (staple 4-11, Stapled peptide composition) [I-13], the 50% effective concentration (EC50) in experiment [1] is not below 10 µM.

Ac-FDA[RdN″]DDAAFV[S7]FWQ-NH2 (staple 4-11, Stapled peptide composition) [I-1] came in with an EC50 in experiment [1] not below 10 µM.

B2: I-4 (peptide)
peptide: Ac-FDA[R8]DEAAFV[PyrS″]FWQ-NH2
modifications: staple 4-11; not fully specified; printed as Ac-Phe-Asp-Ala-R8-Asp-Glu-Ala-Ala-Phe-Val-PyrS-Phe-Trp-Gln-NH2
notes: Stapled peptide composition
For the molecule B2, it took 5.89 µM to reach a half-maximal effect in experiment [1] (EC50).

B3: I-21 (peptide)
peptide: Ac-FDA[R8]DDAEFV[PyrS]FWQ-NH2
modifications: staple 4-11; not fully specified; printed as Ac-Phe-Asp-Ala-R8-Asp-Asp-Ala-Glu-Phe-Val-PyrS-Phe-Trp-Gln-NH2
notes: Stapled peptide composition
For the molecule B3, the EC50 in experiment [1] was not below 10 µM.

B4: I-19 (peptide)
peptide: Ac-FDA[R8]DDADFV[PyrS]FWQ-NH2
modifications: staple 4-11; not fully specified; printed as Ac-Phe-Asp-Ala-R8-Asp-Asp-Ala-Asp-Phe-Val-PyrS-Phe-Trp-Gln-NH2
notes: Stapled peptide composition
B4 registered an EC50 in experiment [1] not below 10 µM.

B5: I-20 (peptide)
peptide: Ac-FDA[R8]DDADFV[PyrS]FWQ-NH2
modifications: staple 4-11; not fully specified; printed as Ac-Phe-Asp-Ala-R8-Asp-Asp-Ala-Asp-Phe-Val-PyrS-Phe-Trp-Gln-NH2
notes: Stapled peptide composition
In experiment [1], B5 returned an EC50 not below 10 µM.

In turn, Ac-FDA[R8]DDAEFV[PyrS]FWQ-NH2 (staple 4-11; also: later-eluting HPLC isomer peak, Stapled peptide composition) [I-22] registered a half-maximal effective concentration (EC50) in experiment [1] not below 10 µM.

On to Ac-FDA[R8]DEAAFV[PyrS″]FWQ-NH2 (staple 4-11, Stapled peptide composition) [I-3], for which the concentration for a half-maximal effect (EC50) in experiment [1] was determined as 9.13 µM.

B6: I-24 (peptide)
peptide: Ac-FDA[R8]DDA[Aad]FV[PyrS]FWQ-NH2
modifications: staple 4-11; not fully specified; printed as Ac-Phe-Asp-Ala-R8-Asp-Asp-Ala-Aad-Phe-Val-PyrS-Phe-Trp-Gln-NH2
notes: Stapled peptide composition
The molecule B6 had a 50% effective concentration (EC50) in experiment [1] of 8.57 µM.
